One molecule from publication PMC8421143 (Nucleic Acids Research, 2021) can be followed below.

The target in this test is recombinant full-length human BLM with a C-terminal His6-tag (human, UniProt P54132 1-1417). The test can be described thus: co-IP.
Chain of recombinant full-length human BLM with a C-terminal His6-tag (P54132 whole entry): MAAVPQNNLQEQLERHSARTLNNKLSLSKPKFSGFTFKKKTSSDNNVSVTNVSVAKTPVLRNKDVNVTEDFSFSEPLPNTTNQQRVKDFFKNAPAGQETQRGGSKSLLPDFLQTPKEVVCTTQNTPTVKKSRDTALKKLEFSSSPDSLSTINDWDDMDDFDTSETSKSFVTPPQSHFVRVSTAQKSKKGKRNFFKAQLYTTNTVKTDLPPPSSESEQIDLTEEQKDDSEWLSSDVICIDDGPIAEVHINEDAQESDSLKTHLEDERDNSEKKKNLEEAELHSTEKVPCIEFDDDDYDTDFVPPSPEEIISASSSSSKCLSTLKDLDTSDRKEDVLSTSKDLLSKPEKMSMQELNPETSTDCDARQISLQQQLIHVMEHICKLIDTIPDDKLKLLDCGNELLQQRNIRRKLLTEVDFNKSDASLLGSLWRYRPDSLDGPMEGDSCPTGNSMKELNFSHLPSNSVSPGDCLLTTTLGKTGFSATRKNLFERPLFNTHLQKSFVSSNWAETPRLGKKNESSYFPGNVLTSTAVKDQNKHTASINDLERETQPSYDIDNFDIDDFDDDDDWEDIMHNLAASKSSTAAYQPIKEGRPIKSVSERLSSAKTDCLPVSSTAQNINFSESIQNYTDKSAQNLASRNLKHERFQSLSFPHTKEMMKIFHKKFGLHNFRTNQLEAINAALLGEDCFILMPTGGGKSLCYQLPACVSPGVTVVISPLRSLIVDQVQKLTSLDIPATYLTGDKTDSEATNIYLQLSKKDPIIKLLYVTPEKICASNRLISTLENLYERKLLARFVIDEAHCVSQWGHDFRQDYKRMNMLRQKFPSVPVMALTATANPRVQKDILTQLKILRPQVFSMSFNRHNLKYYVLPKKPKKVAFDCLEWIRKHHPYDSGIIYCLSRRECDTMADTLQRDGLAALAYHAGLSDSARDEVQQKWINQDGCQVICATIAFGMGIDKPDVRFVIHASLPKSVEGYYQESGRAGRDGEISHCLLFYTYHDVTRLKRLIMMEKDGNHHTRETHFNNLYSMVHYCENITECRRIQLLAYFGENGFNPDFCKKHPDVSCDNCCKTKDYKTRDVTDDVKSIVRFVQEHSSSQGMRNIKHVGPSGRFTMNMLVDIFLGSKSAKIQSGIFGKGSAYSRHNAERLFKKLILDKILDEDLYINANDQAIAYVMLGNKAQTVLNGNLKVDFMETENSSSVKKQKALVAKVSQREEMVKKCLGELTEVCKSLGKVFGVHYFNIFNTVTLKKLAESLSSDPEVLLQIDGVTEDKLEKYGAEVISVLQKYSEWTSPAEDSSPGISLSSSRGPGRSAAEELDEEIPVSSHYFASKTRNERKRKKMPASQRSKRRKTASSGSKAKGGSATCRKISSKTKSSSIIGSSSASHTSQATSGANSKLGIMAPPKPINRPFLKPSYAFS

B1: recombinant full length human Mcm6 from wheat germ (natural protein)
chain: MDLAAAAEPGAGSQHLEVRDEVAEKCQKLFLDFLEEFQSSDGEIKYLQLAEELIRPERNTLVVSFVDLEQFNQQLSTTIQEEFYRVYPYLCRALKTFVKDRKEIPLAKDFYVAFQDLPTRHKIRELTSSRIGLLTRISGQVVRTHPVHPELVSGTFLCLDCQTVIRDVEQQFKYTQPNICRNPVCANRRRFLLDTNKSRFVDFQKVRIQETQAELPRGSIPRSLEVILRAEAVESAQAGDKCDFTGTLIVVPDVSKLSTPGARAETNSRVSGVDGYETEGIRGLRALGVRDLSYRLVFLACCVAPTNPRFGGKELRDEEQTAESIKNQMTVKEWEKVFEMSQDKNLYHNLCTSLFPTIHGNDEVKRGVLLMLFGGVPKTTGEGTSLRGDINVCIVGDPSTAKSQFLKHVEEFSPRAVYTSGKASSAAGLTAAVVRDEESHEFVIEAGALMLADNGVCCIDEFDKMDVRDQVAIHEAMEQQTISITKAGVKATLNARTSILAAANPISGHYDRSKSLKQNINLSAPIMSRFDLFFILVDECNEVTDYAIARRIVDLHSRIEESIDRVYSLDDIRRYLLFARQFKPKISKESEDFIVEQYKHLRQRDGSGVTKSSWRITVRQLESMIRLSEAMARMHCCDEVQPKHVKEAFRLLNKSIIRVETPDVNLDQEEEIQMEVDEGAGGINGHADSPAPVNGINGYNEDINQESAPKASLRLGFSEYCRISNLIVLHLRKVEEEEDESALKRSELVNWYLKEIESEIDSEEELINKKRIIEKVIHRLTHYDHVLIELTQAGLKGSTEGSESYEEDPYLVVNPNYLLED
Take B1: the binding result was “binds”.
